One assay concerns the target human glucagon receptor (human, UniProt P47871). Kind of assay: cell-based or functional assay.
A further assay addresses human GLP-1 receptor (human, UniProt P43220). Kind of assay: cell-based or functional assay.

Experimental findings from patent publication US12630600B2 (MEDIMMUNE LIMITED, priority 2022, dated 2026) are described below.

Starred links: 1 amine or outer side, 2 acyl side, 3 side chain; linkers in the order of their positions; H or OH if unused. Non-standard residues stand in square brackets, D forms with d. Groups on a side chain read outwards from the residue. Primed or numbered codes have the meaning given here. No end group written: not given here. *: point of attachment. PEG12 = NCCOCCOCCOCCOCCOCCOCCOCCOCCOCCOCCOCCOCCC(=O)O; C18 diacid = O=C(O)CCCCCCCCCCCCCCCCC(=O)*; Dip = N[C@H](C(=O)O)C(c1ccccc1)c1ccccc1; Heptadecanoyl = CCCCCCCCCCCCCCCCC(=O)*; γGlu = O=C(O)[C@H](CCC(=O)[*:2])N[*:1]; Stearoyl = CCCCCCCCCCCCCCCCCC(=O)*; Palmitoyl = CCCCCCCCCCCCCCCC(=O)*; αMeF = C[C@](N)(Cc1ccccc1)C(=O)O; Myristoyl = CCCCCCCCCCCCCC(=O)*; (PEG)2 = polyethylene glycol 2; PEG2′ = polyethylene glycol 2; PEG4′ = polyethylene glycol; Dodecyl = CCCCCCCCCCCC*; PEG2 = NCCOCCOCCC(=O)O; AEEA = NCCOCCOCC(=O)O; Aib = CC(C)(N)C(=O)O

With HSQGS[αMeF]TSDVSK[αMeF]LDSKAAQD[αMeF]VQ[Aib]LEAGG-NH2 (not fully specified (residue 17)) [Peptide 80], the “cAMP production, hGluc-R EC50 (pM)” value with human glucagon receptor was 9.18 pM. Also, in the assay with human GLP-1 receptor, the “cAMP production, hGLP-1R EC50 (pM)” value turned out to be 1.03 pM.

HSQGS[αMeF]TSDVSK[Dip]LDSK([(PEG)2-(PEG)2-γGlu-γGlu-Myristoyl])AAQD[αMeF]VE[Aib]IINT-NH2 [Peptide 63]: the “cAMP production, hGluc-R EC50 (pM)” value in the assay with human glucagon receptor turned out to be 2.49 pM. The “cAMP production, hGLP-1R EC50 (pM)” value with human GLP-1 receptor was 3.14 pM.

For the molecule HSQGS[αMeF]TSDVSK[αMeF]LDSK([PEG2′-PEG2′-γGlu-γGlu-Palmitoyl])AAQD[αMeF]VQ[Aib]IAN-NH2 (not fully specified) [Peptide 89], the “cAMP production, hGluc-R EC50 (pM)” value with human glucagon receptor was determined as 15.3 pM. In addition, in the assay with human GLP-1 receptor, the “cAMP production, hGLP-1R EC50 (pM)” value stood at 3.77 pM.

Turning to HSQGS[αMeF]TSDVSK[Aib]LDSK([(PEG)2-(PEG)2-γGlu-γGlu-Stearoyl])AAQD[αMeF]VQ[Aib]IAN-NH2 [Peptide 100], the “cAMP production, hGluc-R EC50 (pM)” value with human glucagon receptor is 40.5 pM. Moreover, in the assay with human GLP-1 receptor, the “cAMP production, hGLP-1R EC50 (pM)” value turned out to be 0.258 pM.

For HSQGS[αMeF]TSDVSK[Dip]LDSK([(PEG)2-γGlu-(PEG)2-γGlu-Stearoyl])AAQD[αMeF]VE[Aib]IINT-NH2 [Peptide 61], in the assay with human glucagon receptor, the “cAMP production, hGluc-R EC50 (pM)” value was determined as 9.55 pM. Also, the “cAMP production, hGLP-1R EC50 (pM)” value with human GLP-1 receptor was 4.12 pM.

In the case of HSQGS[αMeF]TSDVSK[αMeF]LDSK([(PEG)2-(PEG)2-γGlu-γGlu-Palmitoyl])AAQD[αMeF]VQ[Aib]IAN-NH2 [Peptide 87], in the assay with human glucagon receptor, the “cAMP production, hGluc-R EC50 (pM)” value turned out to be 8.46 pM. In the assay with human GLP-1 receptor, the “cAMP production, hGLP-1R EC50 (pM)” value was determined as 1.29 pM.

On to H[Aib]QGS[αMeF]TSDVSK[Dip]LDSK([PEG2′-PEG2′-γGlu-Palmitoyl])AAQD[αMeF]VQ[Aib]IAN-NH2 [Peptide 67], for which, in the assay with human glucagon receptor, the “cAMP production, hGluc-R EC50 (pM)” value is 9.49 pM. In addition, the “cAMP production, hGLP-1R EC50 (pM)” value with human GLP-1 receptor came to 2.43 pM.

With HSQGS[αMeF]TSDVSK[Aib]LDSK([(PEG)2-(PEG)2-γGlu-γGlu-Palmitoyl])AAQD[αMeF]VQ[Aib]IIE-NH2 [Peptide 99], the “cAMP production, hGluc-R EC50 (pM)” value with human glucagon receptor came out at 33.2 pM. Besides, the “cAMP production, hGLP-1R EC50 (pM)” value with human GLP-1 receptor turned out to be 2.21 pM.

As for HSQGS[αMeF]TSDVSK[Dip]LDSK([(PEG)2-(PEG)2-γGlu-γGlu-Dodecyl])AAQD[αMeF]VE[Aib]IINT-NH2 [Peptide 62], the “cAMP production, hGluc-R EC50 (pM)” value with human glucagon receptor came out at 15.2 pM. Also, the “cAMP production, hGLP-1R EC50 (pM)” value with human GLP-1 receptor came out at 10.1 pM.

In the case of HSQGS[αMeF]TSDVSK[Dip]LDSK([γGlu-γGlu-(PEG)2-(PEG)2-Stearoyl])AAQD[αMeF]VE[Aib]IINT-NH2 [Peptide 59], the “cAMP production, hGluc-R EC50 (pM)” value with human glucagon receptor turned out to be 28.4 pM. Also, in the assay with human GLP-1 receptor, the “cAMP production, hGLP-1R EC50 (pM)” value was determined as 6.18 pM.

Regarding H[Aib]QGS[αMeF]TSDVSK[αMeF]LDSK([PEG4′-γGlu-γGlu-Palmitoyl])AAQD[αMeF]VE[Aib]LEAGG-NH2 [Peptide 72], in the assay with human glucagon receptor, the “cAMP production, hGluc-R EC50 (pM)” value worked out at 73.7 pM. Further, the “cAMP production, hGLP-1R EC50 (pM)” value with human GLP-1 receptor amounted to 3.42 pM.

B1: Peptide 58 (peptide)
peptide: HSQGS[αMeF]TSDVSK[Dip]LDSK([PEG12-γGlu-γGlu-Stearoyl])AAQD[αMeF]VE[Aib]IINT-NH2
modifications: N-terminus assumed
SMILES: CCCCCCCCCCCCCCCCCC(=O)N[C@@H](CCC(=O)N[C@@H](CCC(=O)NCCOCCOCCOCCOCCOCCOCCOCCOCCOCCOCCOCCOCCC(=O)NCCCC[C@H](NC(=O)[C@H](CO)NC(=O)[C@H](CC(=O)O)NC(=O)[C@H](CC(C)C)NC(=O)[C@@H](NC(=O)[C@H](CCCCN)NC(=O)[C@H](CO)NC(=O)[C@@H](NC(=O)[C@H](CC(=O)O)NC(=O)[C@H](CO)NC(=O)[C@@H](NC(=O)[C@](C)(Cc1ccccc1)NC(=O)[C@H](CO)NC(=O)CNC(=O)[C@H](CCC(N)=O)NC(=O)[C@H](CO)NC(=O)[C@@H](N)Cc1c[nH]cn1)[C@@H](C)O)C(C)C)C(c1ccccc1)c1ccccc1)C(=O)N[C@@H](C)C(=O)N[C@@H](C)C(=O)N[C@@H](CCC(N)=O)C(=O)N[C@@H](CC(=O)O)C(=O)N[C@@](C)(Cc1ccccc1)C(=O)N[C@H](C(=O)N[C@@H](CCC(=O)O)C(=O)NC(C)(C)C(=O)N[C@H](C(=O)N[C@H](C(=O)N[C@@H](CC(N)=O)C(=O)N[C@H](C(N)=O)[C@@H](C)O)[C@@H](C)CC)[C@@H](C)CC)C(C)C)C(=O)O)C(=O)O
Consider B1, for which the “cAMP production, hGluc-R EC50 (pM)” value in the assay with human glucagon receptor was 11.3 pM. Further, the “cAMP production, hGLP-1R EC50 (pM)” value in the assay with human GLP-1 receptor is 3.9 pM.

On to HSQGS[αMeF]TSDVSK[αMeF]LDSK([(PEG)2-(PEG)2-γGlu-γGlu-Heptadecanoyl])AAQD[αMeF]VQ[Aib]IAN-NH2 [Peptide 88], for which the “cAMP production, hGluc-R EC50 (pM)” value with human glucagon receptor was 6.47 pM. For the same molecule, the “cAMP production, hGLP-1R EC50 (pM)” value with human GLP-1 receptor came out at 1.04 pM.

HSQGS[αMeF]TSDVSK[αMeF]LDSK([PEG2′-PEG2′-γGlu-γGlu-Palmitoyl])AAQD[αMeF]VQ[Aib]LEAGG-NH2 [Peptide 79]: in the assay with human glucagon receptor, the “cAMP production, hGluc-R EC50 (pM)” value came to 10.7 pM. The “cAMP production, hGLP-1R EC50 (pM)” value with human GLP-1 receptor turned out to be 1.73 pM.

With HSQGS[αMeF]TSDVSK[Dip]LDSK([γGlu-(PEG)2-γGlu-(PEG)2-Stearoyl])AAQD[αMeF]VE[Aib]IINT-NH2 [Peptide 60], the “cAMP production, hGluc-R EC50 (pM)” value with human glucagon receptor stood at 21.1 pM. Also, the “cAMP production, hGLP-1R EC50 (pM)” value with human GLP-1 receptor amounted to 5.16 pM.

As for H[Aib]HGS[αMeF]TSDVSK[αMeF]LDSK([AEEA-AEEA-γGlu-C18 diacid])AAQDFVQ[Aib]IANT-NH2 [Peptide 11], the “cAMP production, hGluc-R EC50 (pM)” value with human glucagon receptor is 118 pM. Further, the “cAMP production, hGLP-1R EC50 (pM)” value in the assay with human GLP-1 receptor came out at 157 pM.

Consider HSQGS[αMeF]TSDVSK[Dip]LDSK([PEG2′-PEG2′-γGlu-γGlu-Palmitoyl])AAQD[αMeF]VE[Aib]IINT-NH2 [Peptide 64], for which, in the assay with human glucagon receptor, the “cAMP production, hGluc-R EC50 (pM)” value turned out to be 3.06 pM. The “cAMP production, hGLP-1R EC50 (pM)” value in the assay with human GLP-1 receptor came out at 2.57 pM.

Regarding HSQGS[αMeF]TSDVSK[Dip]LDSK([PEG2-PEG2-γGlu-γGlu-C18 diacid])AAQD[αMeF]VE[Aib]IINT-NH2 [Peptide 65], the “cAMP production, hGluc-R EC50 (pM)” value in the assay with human glucagon receptor was determined as 2060 pM. In the assay with human GLP-1 receptor, the “cAMP production, hGLP-1R EC50 (pM)” value amounted to 1230 pM.
